The supplement of paper PMC9170038

Tested on: K4 kissing-loop RNA reporter
Test: apparent KD of K4 kissing-loop reporter; higher = weaker reporter binding
Conditions: Eterna round: R107
Description: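 RNA-MaP round R107: designed RNA switches with theophylline, tryptophan, arginine or FMN aptamers are transcribed on-chip within common flanks. They are titrated with a labelled K4 kissing-loop RNA reporter in RNA-MaP buffer (100 mM Tris pH 7.5, 80 mM KCl, 4 mM MgCl2), without ligand or with the indicated ligand. Median apparent KD per design.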

[1] = input ligand: theophylline 20 uM
[2] = input ligand: tryptophan 2.4 mM
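Also: bound reporter read as fluorescence of individual clusters on recovered sequencing chips by microscopy, with normalized cluster intensities fitted with a binding model.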

Sequence | apparent KD of K4 kissing-loop reporter (input ligand: FMN 200 uM) [nM] | apparent KD of K4 kissing-loop reporter (input ligand: arginine 13.2 mM) [nM] | apparent KD of K4 kissing-loop reporter (input ligand: none) [nM] | apparent KD of K4 kissing-loop reporter [1] [nM] | apparent KD of K4 kissing-loop reporter [2] [nM]
CGAUCUGAUAGCAGUGAUGUUGCUACAGAUACCAGUCCAGAUCGAGACCCUUGGCAGCUGACCCGGCAUGUGCUAUGGUAGAUCG [Theo A Ex t1] | 156 | 127 | 155 | 154 | 146
AAUAACUAGUAUAUUUUUAAUAAUACAGAUACCAGUGAUAAUAAACACCCUUGGCAGCUGAUCGAGUGAUGUUCGUUUAUUUUAA [JR_SSTheophyA_Sub002] | 84 | 74.6 | 93.3 | 188 | 66.2
GGCAGUGAUGUUGCCAGUGGCAGAUUGGAAGGAGCGUGGUGAGACACAGGUAGGUCGCUAAUUGAAGUUGCUGUCACUAAAAUGC [whbob_Ex_Arginine_A_2t131] | 276 | 299 | 307 | 260 | 241
CAGAACUUAUAUAGAAACUAUAUAAGAGAUACCAGUCAAAUUAAAGACCCUUGGCAGCUCAGGCGAGUGAUGUUCGCAGGCUAAC [Astros-Gfrank-modulation#1] | 99.3 | 94.2 | 102 | 106 | 78.8
AUGUCUGAUAGCAGUGAUGUUGCUUCGGAUACCAGACGAGAUCAUGUCCCUUGGCAGCUGACACGGCACGUGCUAGGUUAGAUGA [whbob_Ex_Theo_A_th72] | 121 | 98.3 | 115 | 116 | 113
AGAGUGAUGUUUUUUUGAAGUGAGUAAAGUCGAGGACCGGUACGGCCGCCACUCGAGUGAUGUUAGUGAUGUUGAUGUAGUGAUG [xxzmullin] | 110 | 69 | 90.9 | 105 | 75.4
UGAUACCAGGCGGCCGCCACUCCUACAGGUCAAAGACCUGUAAAACUGGUUUUUUAGUGAUGUUGGAGGACCGGGCCUGGUAUCU [FiskerMod 28 - Jieux - Exclusion - Tryptophan B] | 181 | 108 | 178 | 183 | 177
AUUAAUUUCAGAGGAUAUCGUUAUUUUAUUUAAUUUAUUCAUUUAUGCAGUGAUGUUGCUAUUAUUCGAGAAGGCUGAUUUAUAA [JR_ExcFMNB_Sub006] | 82.1 | 83.5 | 34 | 70.4 | 35.3
UAUAUACAUUUAUUAAUUAAAGGUUCAGAAGGAGCGUGAAUUAACACAGGUAGGUCGCUGAGCGAGUGAUGUUCGCUAUAUGGAA [JR_ExcArginiA_Sub006] | 54.1 | 69.3 | 57 | 81 | 50.4
UACUAUAGUGAUGUUAUAGAUAAACCAGAUACCAGUGUGACAUAACACCCUUGGCAGCUGAUAAGGGAACAUAUGAAAACAUAUG [AstroSSTHeAED5.17] | 146 | 120 | 132 | 120 | 128
AGUGCACUGUCAGGAUAUGUACAGUGAUGUUGUGUAUGUCAGCAAGUCAAAGACUUGCUCUUCUGUGCAGAAGGGACUGUGUACA [Omei KL FMN B Exc A v5] | 755 | 464 | 628 | 506 | 554
AGAUGACACGGAGGAUAUCCUAAUAUGGGUGAUGUUAGCGAUGUUGAAGGUGUAGUGAUGUUAUGCGGAGAAGGCCGUGUUGUUU [BDazzled - #22 - Exc. FMN B] | 103 | 85.6 | 155 | 102 | 96.1
AGAUUCGACACGGCCGCCACUUGUGGUGGAUUAUCCUAUGUAAGACAUGAGUGAUGUUCAUGUACAAGGACCGGGUGUUGAGUCU [KL-XTryp-B4 #analogue] | 215 | 177 | 199 | 193 | 425
UUUCGGCUCUGAGGAUAUUCGGACAAAUAUAGUGAUGUUGUAUAAGGAGGAGGGUGUUGGCAGUGAGGAGAAGGCAGAGGAGGAU [#07 K4 FMN B Exclusion] | 376 | 208 | 397 | 358 | 214
ACUUUGGGCCCAGUGAUGUUGGGUCCAGAUACCAGACGUAAAUAAGUCCCUUGGCAGCUGCGUACUAACUAGCACAGGAGGGUCC [Edleaes] | 135 | 143 | 150 | 154 | 141
UGAUUGCCAGUGAUGUUGGCAGUUUCUGAAGGAGCGCGUGAAAACGCAGGUAGGUCGCAGAUUAGUGCCAAUUGAUCGAAAGAUC [KL-XArg-A4] | 208 | 227 | 214 | 193 | 205
GAUUCUGUUCGAAAGAACGGAAUCACGGAAGGAGCGAGAGAAAUCUCAGGUAGGUCGCCGAAUUUUAGAUAGUGAUGUUAUCAUU [Arginine A K4 1] | 820 | 724 | 1080 | 856 | 711
AAAUAGGUGUGCGAUACCAGCCGGAGUGAUGUUCCGUGUUGUACUGGCUGCACCUACGCCGGCCCUUGGCAGCGUGCUCCAUUUA [Enonin] | 177 | 140 | 169 | 263 | 148
UGGAGUUGACGAAAAGUCAACUCCUGAGAUACCAGUGACGAAAGUCACCCUUGGCAGCUCACUGCCAGUGAUGUUGGAACUAAAG [#02 K4 Theophylline A Same State] | 308 | 158 | 256 | 452 | 216
GCGCGUCAUGUCAGCGGUGACACUGUCGAUACCAGUGCCGGAAGGCGCCCUUGGCAGCGACGUGCUGGAGUGAUGUUCCAGCGUU [#2 Exclusion - Theophylline A Attempt #28 (HarryS)] | 136 | 128 | 151 | 131 | 130
AAGACUGCAGGAAGGAGCGGCGGACGGAGUGAUGUUCCGGCUAGUGAUGUUAGCAAACACCGCCAGGUAGGUCGCCUGUUGCUCU [Same State Arginine B GF7] | 113 | 116 | 126 | 166 | 128
UUUGUAUAGGGAAGGAGCGUGAAUGAGAAAGAAUAUAGUGAUGUUAUAUAGAAGAAAGAAUCACAGGUAGGUCGCCCGGAGGAGG [SSArgB.G] | 484 | 363 | 371 | 482 | 337
